Laboratory results as given in PMC7396675, “Functional and Structural Characterization of a Potent C1q Inhibitor Targeting the Classical Pathway of the Complement System” (Frontiers in Immunology, 2020).

Legend:
[1] = molecular target: T1, monomeric single-chain recombinant gC1q (Homo sapiens); assay: BLI; Octet Red96, 30°C, 1,000 rpm; C1qNb75 immobilized on amine reactive (AR2G) biosensors; kinetics buffer (PBS, 1 mg/mL BSA, 0.05% Tween 20); gC1q 0.3 to 10.9 nM, C1q 0.7 to 5.4 nM; gC1q data globally fitted with a 1:1 binding model; conditions: both partners purified
T1 construct: globular head module of human C1q A-chain; numbers count on: the mature protein; globular head module of human C1q C-chain; globular head module of human C1q B-chain; also called single-chain form of gC1q; hC1qGH
T1 chain: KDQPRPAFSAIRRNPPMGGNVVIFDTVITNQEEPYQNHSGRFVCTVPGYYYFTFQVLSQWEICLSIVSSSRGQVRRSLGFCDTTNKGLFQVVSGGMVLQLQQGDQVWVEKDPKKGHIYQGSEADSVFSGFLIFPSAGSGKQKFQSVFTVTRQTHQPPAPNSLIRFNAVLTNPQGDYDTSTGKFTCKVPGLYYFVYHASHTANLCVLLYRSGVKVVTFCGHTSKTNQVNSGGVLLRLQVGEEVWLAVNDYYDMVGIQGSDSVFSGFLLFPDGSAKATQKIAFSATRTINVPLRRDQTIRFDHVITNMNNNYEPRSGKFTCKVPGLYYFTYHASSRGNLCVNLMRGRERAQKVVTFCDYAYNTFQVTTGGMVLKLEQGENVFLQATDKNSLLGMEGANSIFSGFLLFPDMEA

[2] = molecular target: human C1q (Homo sapiens, UniProt P02745;P02746;P02747); assay: cell-based or functional assay
Chain of human C1q (P02745 23-245, chain 1 of 2): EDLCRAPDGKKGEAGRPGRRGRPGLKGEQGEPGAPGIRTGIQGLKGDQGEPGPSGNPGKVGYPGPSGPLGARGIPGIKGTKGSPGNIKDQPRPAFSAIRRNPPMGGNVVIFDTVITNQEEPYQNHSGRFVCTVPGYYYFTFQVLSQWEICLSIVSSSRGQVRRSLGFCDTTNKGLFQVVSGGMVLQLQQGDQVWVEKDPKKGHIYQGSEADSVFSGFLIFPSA
Chain of human C1q (P02747 29-245, chain 3 of 2): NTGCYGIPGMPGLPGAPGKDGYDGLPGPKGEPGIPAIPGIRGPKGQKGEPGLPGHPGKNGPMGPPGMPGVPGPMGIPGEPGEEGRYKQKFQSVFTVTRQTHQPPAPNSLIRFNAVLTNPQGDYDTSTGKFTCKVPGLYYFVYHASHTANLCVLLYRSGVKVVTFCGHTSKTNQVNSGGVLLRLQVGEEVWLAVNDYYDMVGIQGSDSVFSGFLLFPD

B1: C1qNb75 (VHH)
VHH: QVQLVETGGGLVQAGGSLRLSCAASGRTFNNDVMAWFRQAPGTEREFVALITAGGGTHYADSVKGRFVISRDNDKNMAYLQMNSLKSEDTAIYYCGADENPPGWPSRWSSAYDYWGQGTQVTVSS
notes: nanobody chain of the crystal structure deposited here as PDB 6Z6V; also called C1q specific nanobody; source: E. coli LOBSTR cells (pET22b+), purified (Ni-NTA, MonoS, Superdex75)
For B1, the Kd [1] was 0.3 nM, the t1/2 [1] was 1.14 h and the “IC50 of hemolysis of IgM-sensitized sheep RBCs in NHS with increasing concentrations of C1qNb75 (blocks C1q binding to IgM)” value [2] was 5.8 nM.
